Patent US7183110B2, “Antibody immunoreactive with a 5-enolpyruvylshikimate-3-phosphate synthase” (Monsanto Technology LLC, priority 1990, dated 2007)

Key:
EPSPS enzymes = experiment: Kinetic characterization of EPSPS enzymes (Km PEP, Ki glyphosate); type: biochemical; conditions: for Ki/Km: Ki glyphosate / Km PEP; for Km: Km of the EPSPS enzyme for phosphoenolpyruvate, PEP ranges tested in table footnotes
Description: The EPSPS enzymes from these microorganisms were then subjected to further study and analysis.
When the change introduced into the Petunia EPSPS (GA101) was introduced into a number of other EPSPS enzymes, similar changes in kinetics were observed, an elevation of the Ki for glyphosate and of the Km for PEP.
All protein purification procedures were carried out at 3–5° C. EPSPS enzyme assays were performed using either the phosphate release or radioactive HPLC method, as previously described in Padgette et al., 1987, using 1 mM phosphoenol pyruvate (PEP, Boehringer) and 2 mM shikimate-3-phosphate (S3P) substrate concentrations. For radioactive HPLC assays, ^14C-PEP (Amersham) was utilized. S3P was synthesized as previously described in Wibbenmeyer et al. 1988. N-terminal amino acid sequencing was performed by loading samples onto a Polybrene precycled filter in aliquots while drying. Automated Edman degradation chemistry was used to determine the N-terminal protein sequence, using an Applied Biosystems Model 470A gas phase sequencer (Hunkapiller et al., 1983) with an Applied Biosystems 120A PTH analyzer.

B. subtilis EPSPS = target: T1, B. subtilis EPSPS (Bacillus subtilis, UniProt P20691); experiment: EPSPS assay and kinetics of B. subtilis EPSPS in crude bacterial extract; type: biochemical; conditions: for EPSPS specific activity: crude extract
T1 construct: Standard EPSPS assay reactions contained crude bacterial extract; endogenous in cells; host or cells: Bacillus subtilis 1A2 crude extract; some values from E. coli GB100 carrying pMON21133 (subclone) or pMON21132 (PCR clone)
Description: Bacillus subtilis 1A2 (prototroph) was obtained from the Bacillus Genetic Stock Center at Ohio State University. Standard EPSPS assay reactions contained crude bacterial extract with, 1 mM phosphoenolpyruvate (PEP), 2 mM shikimate-3-phosphate (S3P), 0.1 mM ammonium molybdate, 5 mM potassium fluoride, and 50 mM HEPES, pH 7.0 at 25° C. One unit (U) of EPSPS activity is defined as one μmol EPSP formed per minute under these conditions. For kinetic determinations, reactions contained crude bacterial, 2 mM S3P, varying concentrations of PEP, and 50 mM HEPES, pH 7.0 at 25° C. […] When the assays were performed in the presence of 1 mM glyphosate, 100% of the EPSPS activity was retained. The appKm(PEP) of the B. subtilis EPSPS was determined by measuring the reaction velocity at varying concentrations of PEP. The results were analyzed graphically by the hyperbolic, Lineweaver-Burk and Eadie-Hofstee plots which yielded appKm(PEP) values of 15.3 μM, 10.8 μM and 12.2 μM, respectively. These three data treatments are in good agreement, and yield an average value for appKm(PEP) of 13 μM. The appKi(glyphosate) was estimated by determining the reaction rates of B. subtilis 1A2 EPSPS in the presence of several concentrations of glyphosate, at a PEP concentration of 2 μM.
The other approach to the isolation of the B. subtilis aroE gene, subcloning from ECE13 into pUC118, was performed as follows: • (i) Cut ECE13 and pUC with XmaI and SphI. • (ii) Isolate 1700 bp aroE fragment and 2600 bp pUC118 vector fragment. • (iii) Ligate fragments and transform into GB100. The subclone was designated pMON21133 and the PCR-derived clone was named pMON21132. Clones from both approaches were first confirmed for complementation of the aroA mutation in E. coli GB100. […] These specific activities reflect the expected types of expression levels of the two vectors. […] The appKm(PEP) and the appKi(glyphosate) of the subcloned B. subtilis EPSPS (pMON21133) were determined as described above. […] Characterization of the EPSPS Gene from Staphylococcus aureus

[1] = tested on: rabbit anti-EPSPS antibody; experiment: Western analysis with rabbit anti-EPSPS antibody to the Petunia EPSPS protein; type: binding; conditions: crude extracts 50 μg protein; control Petunia EPSPS 20 ng; Protein A-125I development
From the text: The presence of EPSPS activity in these extracts was confirmed by enzyme assay. This surprising result, indicating a lack of similarity between the EPSPS's from these bacterial isolates and those previously studied, coupled with the combination of a low Km for PEP and a high Ki for glyphosate, illustrates that these new EPSPS enzymes are different from known EPSPS enzymes (now referred to as Class I EPSPS).

CP4 EPSPS = target: T2, CP4 EPSPS (Agrobacterium sp., UniProt Q9R4E4, S2A); experiment: EPSPS activity from native and synthetic CP4 EPSPS genes expressed in E. coli; type: biochemical, Agrobacterium sp. strain CP4
T2 construct: made in house; host or cells: E. coli, PRecA-gene10L vector
T2 sequence (Q9R4E4 whole entry S2A): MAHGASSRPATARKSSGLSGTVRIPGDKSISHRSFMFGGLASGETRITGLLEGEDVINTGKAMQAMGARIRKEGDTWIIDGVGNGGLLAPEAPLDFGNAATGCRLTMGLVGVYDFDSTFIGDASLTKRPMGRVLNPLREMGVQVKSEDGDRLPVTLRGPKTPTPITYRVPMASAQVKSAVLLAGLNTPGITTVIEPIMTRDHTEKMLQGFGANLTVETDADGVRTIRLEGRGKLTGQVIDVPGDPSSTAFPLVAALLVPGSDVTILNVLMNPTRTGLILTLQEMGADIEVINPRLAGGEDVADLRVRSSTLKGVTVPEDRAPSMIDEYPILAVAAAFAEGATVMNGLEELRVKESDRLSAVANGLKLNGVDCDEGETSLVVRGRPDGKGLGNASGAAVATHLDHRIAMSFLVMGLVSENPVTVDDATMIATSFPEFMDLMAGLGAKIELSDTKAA
From the text: A synthetic CP4 gene was designed to change as completely as possible those inimical sequences discussed above. In summary, the gene sequence was redesigned to eliminate as much as possible the following sequences or sequence features (while avoiding the introduction of unnecessary restriction sites): stretches of G's and C's of 5 or greater; and A+T rich regions (predominantly) that could function as polyadenylation sites or potential RNA destabilization region The sequence of this gene is shown in FIG. 8 (SEQ ID NO:9). This coding sequence was expressed in E. coli from the RecA promoter and assayed for EPSPS activity and compared with that from the native CP4 EPSPS gene. […] The N-terminus of the coding sequence was mutagenized to place an SphI site at the ATG to permit the construction of the CTP2-CP4 synthetic fusion for chloroplast import. The following primer was used to accomplish this mutagenesis:
The EPSPS gene was isolated originally from Agrobacterium sp. strain CP4 and expresses a highly tolerant enzyme. The original gene contains sequences that could be inimical to high expression of the gene in some plants. […] The high G+C % in the CP4 EPSPS gene could also result in the formation of strong hairpin structures that may affect expression or stability of the RNA. A plant preferred version of the gene was synthesized and used for these vectors. This coding sequence was expressed in E. coli from a PRecA-gene10L vector (Olins et al., 1988) and the EPSPS activity was compared with that from the native CP4 EPSPS gene. […] The N-terminus of the coding sequence was then mutagenized to place an SphI site (GCATGC) at the ATG to permit the construction of the CTP2-CP4 synthetic fusion for chloroplast import. This change had no apparent effect on the in vivo activity of CP4 EPSPS in E. coli as judged by complementation of the aroA mutant. A CTP-CP4 EPSPS fusion was constructed between the Arabidopsis thaliana EPSPS CTP (Klee et al., 1987) and the CP4 EPSPS coding sequences. The Arabidopsis CTP was engineered by site-directed mutagenesis to place a SphI restriction site at the CTP processing site. This mutagenesis replaced the Glu-Lys at this location with Cys-Met. The CTP2-CP4 EPSPS fusion was tested for import into chloroplasts isolated from Lactuca sativa using the methods described previously (della-Cioppa et al., 1986: 1987).

[2] = 2 mM S3P, varying PEP, pH 7.0, 25° C.
[3] = 1 mM PEP, 2 mM S3P, pH 7.0, 25° C.

Molecule | Ki/Km (EPSPS enzymes) | Km (EPSPS enzymes) [µM] | EPSPS specific activity (B. subtilis EPSPS; [3]) [U/mg] | other results
B. subtilis 1A2: Class II EPSPS from Bacillus subtilis 1A2 (SEQ ID NO:42) (protein, listed as Bacillus subtilis) MKRDKVQTLHGEIHIPGDKSISHRSVMFGALAAGTTTVKNFLPGADCLSTIDCFRKMGVHIEQSSSDVVIHGKGIDALKEPESLLDVGNSGTTIRLMLGILAGRPFYSAVAGDESIAKRPMKRVTEPLKKMGAKIDGRAGGEFTPLSVSGASLKGIDYVSPVASAQIKSAVLLAGLQAEGTTTVTEPHKSRDHTERMLSAFGVKLSEDQTSVSIAGGQKLTAADIFVPGDISSAAFFLAAGAMVPNSRIVLKNVGLNPTRTGIIDVLQNMGAKLEIKPSADSGAEPYGDLIIETSSLKAVEIGGDIIPRLIDEIPIIALLATQAEGTTVIKDAAELKVKETNRIDTVVSELRKLGAEIEPTADGMKVYGKQTLKGGAAVSSHGDHRIGMMLGIASCITEEPIEIEHTDAIHVSYPTFFEHLNKLSKKS | 33.8 | 13 | 0.003 | EPSPS activity retained in the presence of 1 mM glyphosate (B. subtilis EPSPS; 1 mM glyphosate, 1 mM PEP, 2 mM S3P): 100%; appKm(PEP), Eadie-Hofstee plot (B. subtilis EPSPS; [2]): 12.2 µM; appKm(PEP), Lineweaver-Burk plot (B. subtilis EPSPS; [2]): 10.8 µM; appKm(PEP), hyperbolic plot (B. subtilis EPSPS; [2]): 15.3 µM; average value for appKm(PEP) (B. subtilis EPSPS; average of three data treatments): 13 µM
Petunia: native Petunia EPSPS, a Class I EPSPS (protein, Petunia x hybrida) KPSEIVLQPIKEISGTVKLPGSKSLSNRILLLAALSEGTTVVDNLLSSDDIHYMLGALKTLGLHVEEDSANQRAVVEGCGGLFPVGKESKEEIQLFLGNAGTAMRPLTAAVTVAGGNSRYVLDGVPRMRERPISDLVDGLKQLGAEVDCFLGTKCPPVRIVSKGGLPGGKVKLSGSISSQYLTALLMAAPLALGDVEIEIIDKLISVPYVEMTLKLMERFGISVEHSSSWDRFFVRGGQKYKSPGKAFVEGDASSASYFLAGAAVTGGTITVEGCGTNSLQGDVKFAEVLEKMGAEVTWTENSVTVKGPPRSSSGRKHLRAIDVNMNKMPDVAMTLAVVALYADGPTAIRDVASWRVKETERMIAICTELRKLGATVEEGPDYCIITPPEKLNVTDIDTYDDHRMAMAFSLAACADVPVTINDPGCTRKTFPNYFDVLQQYSKH | 0.08 | 5 |  | signal in Western analysis with rabbit anti-EPSPS antibody [1]: readily detected
pMON21133: B. subtilis EPSPS (aroE) subcloned from ECE13 into pUC118, expressed in E. coli GB100 (protein, UniProt P54374 1-280, looked up) Shikimate dehydrogenase …: MKKLYGVIGNPIGHSMSPDIHNASLKDLGLDGHYHAFKVEENDLEDAVKGIRALGVQGINVTVPHKVSIMDYLDHIDESAKVLGAVNTVRREGDKLVGYNTDGEGFVKSLMKVLDKPISELSFLMIGAGGAARAIFTTIVRNTPKKFDICNRTLEKAKRLTEATPSFHNKEVLSIKEAEERLEQYDVIIHTTSVGMYPNVDDVPLSLQRAASSAVVCDIVYNPIQTALLKEASQKGLKTLDGVGMFVEQAALSFQLWTGQEPNIEKMRSIVIGKLGGTEC |  |  | 0.044 | 
pMON21132: B. subtilis EPSPS from the PCR-derived aroE clone, expressed in E. coli GB100 (protein, UniProt P54374 1-280, looked up) Shikimate dehydrogenase …: MKKLYGVIGNPIGHSMSPDIHNASLKDLGLDGHYHAFKVEENDLEDAVKGIRALGVQGINVTVPHKVSIMDYLDHIDESAKVLGAVNTVRREGDKLVGYNTDGEGFVKSLMKVLDKPISELSFLMIGAGGAARAIFTTIVRNTPKKFDICNRTLEKAKRLTEATPSFHNKEVLSIKEAEERLEQYDVIIHTTSVGMYPNVDDVPLSLQRAASSAVVCDIVYNPIQTALLKEASQKGLKTLDGVGMFVEQAALSFQLWTGQEPNIEKMRSIVIGKLGGTEC |  |  | 0.71 | 
PG2982: Class II EPSPS enzyme from Pseudomonas sp. strain PG2982 (SEQ ID NO:7) (protein, listed as Pseudomonas sp.) MSHSASPKPATARRSEALTGEIRIPGDKSISHRSFMFGGLASGETRITGLLEGEDVINTGRAMQAMGAKIRKEGDVWIINGVGNGCLLQPEAALDFGNAGTGARLTMGLVGTYDMKTSFIGDASLSKRPMGRVLNPLREMGVQVEAADGDRMPLTLIGPKTANPITYRVPMASAQVKSAVLLAGLNTPGVTTVIEPVMTRDHTEKMLQGFGADLTVETDKDGVRHIRITGQGKLVGQTIDVPGDPSSTAFPLVAALLVEGSDVTIRNVLMNPTRTGLILTLQEMGADIEVLNARLAGGEDVADLRVRASKLKGVVVPPERAPSMIDEYPVLAIAASFAEGETVMDGLDELRVKESDRLAAVARGLEANGVDCTEGEMSLTVRGRPDGKGLGGGTVATHLDHRIAMSFLVMGLAAEKPVTVDDSNMIATSFPEFMDMMPGLGAKIELSIL | ~8–40 | 2.1 to 3.1 |  | 
synthetic CP4 gene: EPSPS enzyme expressed in E. coli from the synthetic CP4 gene (SEQ ID NO:9) (protein, UniProt Q9R4E4 1-455, looked up) 3-phosphoshikimate …: MSHGASSRPATARKSSGLSGTVRIPGDKSISHRSFMFGGLASGETRITGLLEGEDVINTGKAMQAMGARIRKEGDTWIIDGVGNGGLLAPEAPLDFGNAATGCRLTMGLVGVYDFDSTFIGDASLTKRPMGRVLNPLREMGVQVKSEDGDRLPVTLRGPKTPTPITYRVPMASAQVKSAVLLAGLNTPGITTVIEPIMTRDHTEKMLQGFGANLTVETDADGVRTIRLEGRGKLTGQVIDVPGDPSSTAFPLVAALLVPGSDVTILNVLMNPTRTGLILTLQEMGADIEVINPRLAGGEDVADLRVRSSTLKGVTVPEDRAPSMIDEYPILAVAAAFAEGATVMNGLEELRVKESDRLSAVANGLKLNGVDCDEGETSLVVRGRPDGKGLGNASGAAVATHLDHRIAMSFLVMGLVSENPVTVDDATMIATSFPEFMDLMAGLGAKIELSDTKAA |  |  |  | appKm for PEP (CP4 EPSPS; expressed in E. coli from a PRecA-gene10L vector): 12.7 µM; Km (CP4 EPSPS; expressed in E. coli from the RecA promoter, read-out: apparent Km for PEP): 12.7 µM
